# According to the supplement of paper PMC7125110:
# ± gives the standard error. This sample holds only a part of the variants without activity.
# B1: glmS ribozyme (parent)
# chain: AUAAAAGCGCCAGAACUACAGAAAUGUAGUUGACGAGGAGGAGGUUUAUCGAAUUUUCGGCGGAUGCCUCCAAA
# Columns and labels:
# Conditions in all cases: with glucosamine-6-phosphate
# glucosamine-6-phosphate [1] = variants of: B1; assay: self-cleavage kobs at 40 uM GlcN6P; higher = faster cleavage; RNA array
# Summary of the method: (§1)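 Tracking of barcoded ribozyme variants used a hybridised Cy3 probe at 37 °C, after in situ transcription by E. coli RNA polymerase on sequenced MiSeq chips. The flowed solution held 40 μM to 10 mM glucosamine-6-phosphate in HEPES/KCl/Mg(OAc)2 buffer, and imaging ran over ~14 h. kobs was taken from exponential decay fits of normalised per-tile medians, and kcat and KM from weighted Michaelis–Menten fits.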
# glucosamine-6-phosphate [2] = variants of: B1; assay: self-cleavage kobs at 160 uM GlcN6P; higher = faster cleavage; RNA array
# Summary of the method: as §1
# glucosamine-6-phosphate [3] = variants of: B1; assay: self-cleavage kobs at 640 uM GlcN6P; higher = faster cleavage; RNA array
# Summary of the method: as §1
# glucosamine-6-phosphate [4] = variants of: B1; assay: self-cleavage kobs at 2500 uM GlcN6P; higher = faster cleavage; RNA array
# Summary of the method: as §1
# glucosamine-6-phosphate [5] = variants of: B1; assay: self-cleavage kobs at 10000 uM GlcN6P; higher = faster cleavage; RNA array
# Summary of the method: as §1
Variant,self-cleavage kobs at 40 uM GlcN6P (glucosamine-6-phosphate [1]) [s⁻¹],self-cleavage kobs at 160 uM GlcN6P (glucosamine-6-phosphate [2]) [s⁻¹],self-cleavage kobs at 640 uM GlcN6P (glucosamine-6-phosphate [3]) [s⁻¹],self-cleavage kobs at 2500 uM GlcN6P (glucosamine-6-phosphate [4]) [s⁻¹],self-cleavage kobs at 10000 uM GlcN6P (glucosamine-6-phosphate [5]) [s⁻¹]
A39U C70U,0.000786 ± 6.4e-05,0.00158 ± 0.00038,0.00436 ± 0.00059,0.0108 ± 0.0033,0.0395 ± 0.0076
U31G U69A,2.79e-05 ± 1.1e-05,9.26e-05 ± 3.7e-05,0.00012 ± 3.2e-05,0.000288 ± 7.4e-05,0.000103 ± 1.4e-05
A6U C8A,< 1e-05,< 1e-05,,< 1e-05,< 1e-05
A33G C50A A53C G60C,< 1e-05,,,,
A6U G35U A39G C71A,< 1e-05,,,,< 1e-05
C50G G62U C68G,0.000123 ± 3.2e-05,,,,9.97e-05 ± 2.5e-05
U30G G66A,0.000144 ± 3.9e-05,,,,
C8A U69G,8.97e-05 ± 2.7e-05,,0.000846 ± 0.00027,0.000592 ± 0.00028,0.000773 ± 0.00027
A12U U47G,0.000706 ± 0.0001,,,0.0123 ± 0.0039,0.0118 ± 0.002
A48U G59A G66U,< 1e-05,< 1e-05,< 1e-05,,< 1e-05
C10G A36G,< 1e-05,,< 1e-05,,< 1e-05
C10G A33C,< 1e-05,< 1e-05,,< 1e-05,< 1e-05
A12U A14G,0.00336 ± 0.00044,0.00737 ± 0.0027,0.0265 ± 0.0078,,
A36C G59U C68G,< 1e-05,,,,
C10A U31A C58G C67A,4.23e-05 ± 1.8e-05,,0.00013 ± 3.4e-05,0.000317 ± 0.00016,3.62e-05 ± 1.5e-05
G13C U49G G60U C70G,< 1e-05,,,,
G32C G40A C50U C68A,< 1e-05,,,,< 1e-05
A36G U57A,< 1e-05,< 1e-05,< 1e-05,< 1e-05,< 1e-05
G9U G41C A42U G44A,< 1e-05,< 1e-05,< 1e-05,< 1e-05,
G35U G41U,< 1e-05,< 1e-05,,< 1e-05,< 1e-05
A48C G51A,< 1e-05,< 1e-05,< 1e-05,< 1e-05,< 1e-05
U30C A42U G44A A48G G59A,< 1e-05,,,< 1e-05,
C11G C58U G59U,< 1e-05,,,,< 1e-05
G40U G62C,< 1e-05,< 1e-05,< 1e-05,,< 1e-05
A14C C68U C71U,< 1e-05,,,,

Variant,self-cleavage kobs at 40 uM GlcN6P (glucosamine-6-phosphate [1]) [s⁻¹],self-cleavage kobs at 160 uM GlcN6P (glucosamine-6-phosphate [2]) [s⁻¹],self-cleavage kobs at 640 uM GlcN6P (glucosamine-6-phosphate [3]) [s⁻¹],self-cleavage kobs at 2500 uM GlcN6P (glucosamine-6-phosphate [4]) [s⁻¹],self-cleavage kobs at 10000 uM GlcN6P (glucosamine-6-phosphate [5]) [s⁻¹]
G13A G43C U65G,< 1e-05,,,< 1e-05,
G62C C67G,< 1e-05,,< 1e-05,< 1e-05,< 1e-05
A24C A48C G62U G63U C70G,< 1e-05,,,,< 1e-05
C34A U65A,< 1e-05,,,< 1e-05,< 1e-05
G9A A53C,< 1e-05,< 1e-05,< 1e-05,< 1e-05,< 1e-05
G62U C67G,< 1e-05,,< 1e-05,,< 1e-05
G29U A42G G43A,< 1e-05,,,,
A53G G60U,< 1e-05,< 1e-05,< 1e-05,,
A6G A15C C70A,< 1e-05,,,,
A48C G59U C67A,< 1e-05,,,,
A36C G44U U54G G66A C71A,< 1e-05,,,,< 1e-05
U65C C70A,< 1e-05,< 1e-05,,,
G32U C61G,< 1e-05,,< 1e-05,,
U31A G51A U56A C58U G63U U65G,< 1e-05,,,,
A33U A42U U65G,< 1e-05,,,,< 1e-05
G9A C11A,< 1e-05,< 1e-05,,,
A36U G40A,< 1e-05,,,,< 1e-05
G32C U49A,< 1e-05,< 1e-05,< 1e-05,,< 1e-05
G9U C16U A52G C67G,0.000158 ± 3.7e-05,,,,0.000546 ± 0.00017
A15C A36U,< 1e-05,,,,< 1e-05
C34A A52U,< 1e-05,,< 1e-05,,< 1e-05
U55A A64U C68U,< 1e-05,,,,
G37C U45C,< 1e-05,< 1e-05,,,
G38A C50U A53G G62U,< 1e-05,,,,
G29U G44C U46A,< 1e-05,,,,
